# Assay results as given in the nanobody polyreactivity screen of Harvey et al. (2022).
# Test: yeast display, Sf9 membrane polyspecificity reagent, FACS + sequencing; frameworks hold sequencing errors
# Summary of the method: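 A synthetic nanobody library was expressed on Saccharomyces cerevisiae BJ5465 by galactose induction for 36–48 hours. The library was stained for 1 hour at 4 °C with 10% biotinylated, detergent-solubilized Sf9 membrane reagent and enriched with streptavidin microbeads before FACS. Low and high (top ~1%) gates were set on anti-HA fluorescence for expression and streptavidin fluorescence for reagent binding, and each polyreactivity label reflects the gate of origin.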
row,Sequence,polyreactivity (PSR sort gate)
1,QVQLVESGGGLVQAGGSLRLSCAASGSTFYTNAMGWYRPAPGKVRELVAAISSSGDSTYYADSVKGRFTISRDNAKNTVYLQMKSLKPDDTAVYYCNADLRSYNGFRYYYWGQGTKVTVSS,low polyreactivity
2,QVQLVESGGGLVQAGGSLRLSCAASGSTFYTNAMGWYRQAPGKDRELVAVITSRGGGTYYADSVKGRFTISRDYAKNTVYLQMNRLKPEDTSVYYCAAYPLVSWGRHGTKGDYWGQGTQVTVSS,low polyreactivity
3,QVQLVESGGGLVQAGGSLRLSCAASGSTFYTNAMGWYRQAPGKERELFAAIRQSGGTTHYADSVKGRFTISRDNAKNTVYLLMNSLKPEDTAVYYCAAVSGGYSRRYRYGYWGQGTQVTVSS,high polyreactivity
4,QVQLVESGGGLVQAGGSLRLSCAASGSTFYTNAMGWYRQAPGKERELVAAITSSVGSTHYADSVKGRFTISRDNAKNTVYIQMNSLKPEDTAVYYCAATFGYGRYGYWGQGTQVTVSS,low polyreactivity
5,QVQLVESGGGLVQAGGSLRLSCAASGSTFYTNAMGWYRQAPGKERELVAASNYSGGSTYYADSVKGRFTISRDNAKNTVYLQMNSLKPEDTAVYYCATDLHWLVTKYGYWGQGTQVTVSS,low polyreactivity
6,QVQLVESGGGLVQAGGSLRLSCAASGSTFYTNAMGWYRQAPGKERELVAVITYRGGSTYYADSVKGRFTISRDNAKNTVYLQMNSLKPEDTAVYYCNARGTVPWYGYDYWGQGTQVTVSS,high polyreactivity
7,QVQLVESGGGLVQAGGSLRLSCAASGSTFYTNDMGWYRQAPGKERELVAAITSAGNTNYADSVKGSFTISRDNAKNTVYLQMNSLKPEDTAVYYYYYYQYDYWGQGTQVTVSS,low polyreactivity
8,QVQLVESGGGLVQAGGSLRLSCAASGSTFYTYAMGWYRQAPGKERELVAAINRSGGTTYYADSVKGRFTISRDNAKNTVYLQMNSLNPEDTAVYYCARRRYGYDYWGQGTQVTVSS,high polyreactivity
9,QVQLVESGGGLVQAGGSLRLSCAASGSTFYTYAMGWYRQAPGKERELVAAISNRGGSTRYADSVKGRFTISRDTAKNTVYLQMNSLKPEDTAVYYCAARVTQTGYYWGQGTQVTVSS,high polyreactivity
10,QVQLVESGGGLVQAGGSLRLSCAASGSTFYTYAMGWYRQAPGKERELVAAITRGGGRTYYADSVKGRFTISRDNAKNTVYLQMNSLKPEDTAVYYCAATVGYGHSYAGWYWVDYWGQGTQVTVSS,high polyreactivity
11,QVQLVESGGGLVQAGGSLRLSCAASGSTFYVNAMGWYRQAPGKERELVAAISWTDDSTYYADSVKGRFTISRDNAKNTVYLQMNSLKPEDTAVYYCAAEQYRYYEVEYWGQGTQVTVSS,high polyreactivity
12,QVQLVESGGGLVQAGGSLRLSCAASGSTFYVNDMGWYRQAPGKERELVAAIDWTGGTTYYADSVKGRFTISRDNAKNTVYLQMNSLKPEDTAVYYCAVDDSTVDYDYWGQGTQVTVSS,low polyreactivity
13,QVQLVESGGGLVQAGGSLRLSCAASGSTFYVYAMGWYRQAPGKERELVAAIDDSGDRTYYADSVKGRFTISRDNAKNTVYLQMNSLKPEDTAVYYCAAEYDSWEYDYWGQGTQVTVSS,low polyreactivity
14,QVQLVESGGGLVQAGGSLRLSCAASGSTFYVYAMGWYRQAPGKERELVASITRGGGTYADSVKGRFTISRDNAKNTVYLQMNSQKPEDTAVYYCNARWQRSTGGRQRYDYWGQGTQVSVSS,high polyreactivity
15,QVQLVESGGGLVQAGGSLRLSCAASGSTFYYNAMGWYRQAPGKEREFVAANSSRGGSTYYADSVKGRFTISRDNAKNTVYLQMNSLKPEDTAVYYCAADYYVWTPIGVRQYDYWGHGTQVTVSS,high polyreactivity
16,QVQLVESGGGLVQAGGSLRLSCAASGSTFYYNAMGWYRQAPGKERELVAAISKRGGTTSYADSVKGRFTISRDNAKNTVYLQMNSLKPEDTADYYCADQTYLRQYYRYYWGQGTQVTVSS,high polyreactivity
17,QVQLVESGGGLVQAGGSLRLSCAASGSTFYYNAMGWYRQAPGKERELVARISRAGASTYYAVAVKGRFTISRDNAKNTVYLPMNSLTPEDTAGYYCAARKKKYGYDNWGQATQVTVSS,high polyreactivity
